Tests used:
Conditions in all cases: remark: other sources report otherwise
[1] = biological target: T1, recombinant homotrimeric HA, A/California/4/09 H1N1 (Influenza A virus A/California/4/09 (H1N1)); assay: trimeric HA microarray, transfection set 5
[2] = biological target: T2, recombinant homotrimeric HA, A/Japan/305/57 H2N2 (Influenza A virus A/Japan/305/57 (H2N2)); assay: trimeric HA microarray, transfection set 5
[3] = biological target: T3, recombinant homotrimeric HA, A/Solomon Islands/3/06 H1N1 (Influenza A virus A/Solomon Islands/3/06 (H1N1)); assay: trimeric HA microarray, transfection set 5
[4] = biological target: T4, recombinant homotrimeric HA, A/Wisconsin/67/05 H3N2 (Influenza A virus A/Wisconsin/67/05 (H3N2)); assay: trimeric HA microarray, transfection set 5
[5] = biological target: recombinant soluble homotrimeric HA of A/California/4/09 (H1N1) (Influenza A virus A/California/4/09 (H1N1)); assay: microarray, BCC supernatant IgG, trimeric HA
[6] = biological target: recombinant soluble homotrimeric HA of A/chicken/Vietnam/NCVD-016/08 (H5N1) (Influenza A virus A/chicken/Vietnam/NCVD-016/08 (H5N1)); assay: microarray, BCC supernatant IgG, trimeric HA
[7] = biological target: recombinant soluble homotrimeric HA of A/northern shoveler/California/HKWF115/07 (Influenza A virus A/northern shoveler/California/HKWF115/2007); assay: microarray, BCC supernatant IgG, trimeric HA
[8] = biological target: T5, recombinant homotrimeric HA, A/Hong Kong/1073/99 H9N2 (Influenza A virus A/Hong Kong/1073/99 (H9N2)); assay: trimeric HA microarray, transfection set 3
[9] = biological target: T2, recombinant homotrimeric HA, …; assay: trimeric HA microarray, transfection set 3
[10] = biological target: recombinant homotrimeric HA, A/Netherlands/219/03 H7N7 (Influenza A virus A/Netherlands/219/03 (H7N7)); assay: trimeric HA microarray, transfection set 3
[11] = biological target: T3, recombinant homotrimeric HA, A/Solomon …; assay: trimeric HA microarray, transfection set 3
[12] = biological target: T6, recombinant homotrimeric HA, A/South Carolina/1/18 H1N1 (Influenza A virus A/South Carolina/1/18 (H1N1)); assay: trimeric HA microarray, transfection set 3
[13] = biological target: T4, recombinant homotrimeric HA, …; assay: trimeric HA microarray, transfection set 3
[14] = biological target: T7, recombinant homotrimeric HA, A/chicken/Vietnam/NCVD-016/08 H5N1 (Influenza A virus A/chicken/Vietnam/NCVD-016/08 (H5N1)); assay: trimeric HA microarray, transfection set 3
[15] = biological target: T8, recombinant homotrimeric HA, A/northern shoveler/California/HKWF115/07 (Influenza A virus A/northern shoveler/California/HKWF115/2007 (H6N1)); assay: trimeric HA microarray, transfection set 3
[16] = biological target: T9, recombinant homotrimeric HA, A/swine/Ontario/01911-2/99 H4N6 (Influenza A virus A/swine/Ontario/01911-2/99 (H4N6)); assay: trimeric HA microarray, transfection set 3
[17] = biological target: recombinant homotrimeric HA, A/duck/Yangzhou/02/05 H8N4 (Influenza A virus A/duck/Yangzhou/02/2005 (H8N4)); assay: trimeric HA microarray, transfection set 3
[18] = biological target: recombinant soluble homotrimeric HA of A/Solomon Islands/3/06 (H1N1) (Influenza A virus A/Solomon Islands/3/06 (H1N1)); assay: microarray, BCC supernatant IgG, trimeric HA
[19] = biological target: recombinant soluble homotrimeric HA of A/duck/Yangzhou/02/05 (H8N4) (Influenza A virus A/duck/Yangzhou/02/2005 (H8N4)); assay: microarray, BCC supernatant IgG, trimeric HA
[20] = biological target: T1, recombinant homotrimeric HA, …; assay: trimeric HA microarray, transfection set 2
[21] = biological target: T10, recombinant homotrimeric HA, A/Egypt/3300-NAMRU3/08 H5N1 (Influenza A virus A/Egypt/3300-NAMRU3/08 (H5N1)); assay: trimeric HA microarray, transfection set 2
[22] = biological target: T5, recombinant homotrimeric HA, A/Hong …; assay: trimeric HA microarray, transfection set 2
[23] = biological target: T2, recombinant homotrimeric HA, …; assay: trimeric HA microarray, transfection set 2
[24] = biological target: T3, recombinant homotrimeric HA, A/Solomon …; assay: trimeric HA microarray, transfection set 2
[25] = biological target: T6, recombinant homotrimeric HA, A/South …; assay: trimeric HA microarray, transfection set 2
[26] = biological target: T11, recombinant homotrimeric HA, A/Vietnam/1203/04 H5N1 (Influenza A virus A/Vietnam/1203/04 (H5N1)); assay: trimeric HA microarray, transfection set 2
[27] = biological target: T4, recombinant homotrimeric HA, …; assay: trimeric HA microarray, transfection set 2
[28] = biological target: T7, recombinant homotrimeric HA, …; assay: trimeric HA microarray, transfection set 2
[29] = biological target: T12, recombinant homotrimeric HA, A/common magpie/Hong Kong/5052/07 H5N1 (Influenza A virus A/common magpie/Hong Kong/5052/07 (H5N1)); assay: trimeric HA microarray, transfection set 2
[30] = biological target: T8, recombinant homotrimeric HA, A/northern …; assay: trimeric HA microarray, transfection set 2
[31] = biological target: T9, recombinant homotrimeric HA, …; assay: trimeric HA microarray, transfection set 2
[32] = biological target: recombinant soluble homotrimeric HA of A/Wisconsin/67/05 (H3N2) (Influenza A virus A/Wisconsin/67/05 (H3N2)); assay: microarray, BCC supernatant IgG, trimeric HA
[33] = biological target: T10, recombinant homotrimeric HA, …; assay: trimeric HA microarray, transfection set 3
[34] = biological target: T11, recombinant homotrimeric HA, …; assay: trimeric HA microarray, transfection set 3
[35] = biological target: T12, recombinant homotrimeric HA, A/common …; assay: trimeric HA microarray, transfection set 3
[36] = biological target: recombinant soluble homotrimeric HA of A/Japan/305/57 (H2N2) (Influenza A virus A/Japan/305/57 (H2N2)); assay: microarray, BCC supernatant IgG, trimeric HA

B1: TCN-547 (5092_F11) (antibody, V domains shown)
VH: QVQLQESGPGLVKPSQTLSLTCTVSGDSISSVDHYWSWIRQHPVKGLEWIGFMYYSASTYYNPSLKSRVTISTDTSKNQFSLRLSSVTAADTAVYYCARGTCAGDCSLHYYYYGLDVWGQGRTVTVSS
VL: DIQMTQSPSSLSASVGDRVTITCRASQSISSYLNWYQHKPGKAPKVLMYAVSILQSGVPSRFSGSGSGADFTLTISSLQPEDFATYYCQQSYSSPLTFGGGTKVEIK
- Trimeric HA Binding RLU [1]: 1470 RLU
- Trimeric HA Binding RLU [2]: 1350 RLU
- Trimeric HA Binding RLU [3]: 1080 RLU
- Trimeric HA Binding RLU [4]: 6970 RLU
- Trimeric HA Binding: RLU [5]: 170 RLU
- Trimeric HA Binding: RLU [6]: 198 RLU
- Trimeric HA Binding: RLU [7]: 1000 RLU

B2: TCN-532 (5262_H18) (antibody, V domains shown)
VH: QVQLQESGPGLVKPSETLSLTCTVSGGSVSSETYYWSWIRQPPGKGLEWIGYIYYIGNTDYRPSLKSRVTISLDTSKNQFSLKLSSVTAADTAVYYCARGAYYDSSGYPAFYIWGQGTMVTVSS
VL: QSVLTQPPSVSGAPGQRVTISCTGSSSNIGSDYDVHWYKQLPGTAPKLLIFGNSNRPSGVPDRFSGSKSGTSASLAITGLQAEDEADYYCQSYDSSLSGFHVFGSGTKVTVL
- Trimeric HA Binding RLU [8]: 48 RLU
- Trimeric HA Binding RLU [9]: 441 RLU
- Trimeric HA Binding RLU [10]: 42 RLU
- Trimeric HA Binding RLU [11]: 59 RLU
- Trimeric HA Binding RLU [12]: 311 RLU
- Trimeric HA Binding RLU [13]: 9970 RLU
- Trimeric HA Binding RLU [14]: 29 RLU
- Trimeric HA Binding RLU [15]: 78 RLU
- Trimeric HA Binding RLU [16]: 29 RLU

B3: TCN-529 (5297_H01) (antibody, V domains shown)
VH: QITLRESGPTLVKPTQTLTLTCTFSGFSLSTNGVNVGWIRQPPGKALEWLALIYWDDDKRYSPSLKRRLTITKDTSKNQVVLTLTNMDPVDTATYYCAHRPDFYGDFEYWGPGTLVTVSS
VL: QSALTQPASVSGSPGQSITISCTGSSSDIGGYNYVSWYQQHPGKAPKLMIYDVNNRPSGVSNRFSGSKSGNTASLTISGLQTDDEADYYCGSYTGSPHYVFGTGTKVTVL
- Trimeric HA Binding RLU [8]: 46 RLU
- Trimeric HA Binding RLU [9]: 45 RLU
- Trimeric HA Binding RLU [11]: 43 RLU
- Trimeric HA Binding RLU [12]: 158 RLU
- Trimeric HA Binding RLU [13]: 2940 RLU
- Trimeric HA Binding RLU [14]: 33 RLU
- Trimeric HA Binding RLU [17]: 48 RLU
- Trimeric HA Binding RLU [16]: 45 RLU
- Trimeric HA Binding: RLU [18]: 179 RLU
- Trimeric HA Binding: RLU [19]: 771 RLU

B4: TCN-522 (3212_I12) (antibody, V domains shown)
VH: QVQLQQWGAGLLKPSETLSLTCTVSGGSLTDYSWNWIRQPPGKGLEWIGDTLHNGYTNYNPSLRGRVSISIDTSKNQVSLRLTSVTAADTALYYCARGSGGYGGFDYFGKLRTWDFWGQGTLVTVSS
VL: DIQLTQSPSSLSASVGDRVTITCRASQGIRNDLGWYQQKPGNAPKRLIFGASSLQSGVPSRFSGSGSGTEFTLTISSLQPEDFATYYCLQHNSYPYTFGQGTKLEIK
- Trimeric HA Binding RLU [20]: 37500 RLU
- Trimeric HA Binding RLU [21]: 55400 RLU
- Trimeric HA Binding RLU [22]: 11800 RLU
- Trimeric HA Binding RLU [23]: 11900 RLU
- Trimeric HA Binding RLU [24]: 17300 RLU
- Trimeric HA Binding RLU [25]: 39600 RLU
- Trimeric HA Binding RLU [26]: 48200 RLU
- Trimeric HA Binding RLU [27]: 3350 RLU
- Trimeric HA Binding RLU [28]: 49300 RLU
- Trimeric HA Binding RLU [29]: 21400 RLU
- Trimeric HA Binding RLU [30]: 54400 RLU
- Trimeric HA Binding RLU [31]: 1050 RLU
- Trimeric HA Binding: RLU [32]: 302 RLU

B5: TCN-531 (5091_H13) (antibody, V domains shown)
VH: EVQLVESGGDLVQPGRSLKLSCTGSGFTFGDYGVTWVRQAPGKGLEWVGFIRTRPWGGTADTAASVKGRFTISRDDSKSLAYLQMNSLKTEDTAVYYCCRDAPPNVEVASMTNWYFDLWGRGTLVTVSS
VL: DIQLTQSPSSLSASVGDRVTITCRASQGILNCLAWYQQKPGKVPNLLMYAASTLQSGVPSRFSGSGFGTDFTLTISSLQPEDVATYYCQTYGGVSTFGGGTKVEIR
- Trimeric HA Binding RLU [33]: 363 RLU
- Trimeric HA Binding RLU [9]: 489 RLU
- Trimeric HA Binding RLU [34]: 2410 RLU
- Trimeric HA Binding RLU [13]: 4160 RLU
- Trimeric HA Binding RLU [35]: 37 RLU
- Trimeric HA Binding RLU [17]: 3220 RLU
- Trimeric HA Binding RLU [16]: 296 RLU
- Trimeric HA Binding: RLU [5]: 22200 RLU
- Trimeric HA Binding: RLU [36]: 410 RLU
- Trimeric HA Binding: RLU [6]: 20800 RLU

Reference: patent US20120207760A1
